The labels stand for the following.
B1: sp¦Q9NUQ9¦CYRIB_HUMAN (protein, UniProt Q9NUQ9 2-324, looked up)
CYFIP-related Rac1 interactor …: GNLLKVLTCTDLEQGPNFFLDFENAQPTESEKEIYNQVNVVLKDAEGILEDLQSYRGAGHEIREAIQHPADEKLQEKAWGAVVPLVGKLKKFYEFSQRLEAALRGLLGALTSTPYSPTQHLEREQALAKQFAEILHFTLRFDELKMTNPAIQNDFSYYRRTLSRMRINNVPAEGENEVNNELANRMSLFYAEATPMLKTLSDATTKFVSENKNLPIENTTDCLSTMASVCRVMLETPEYRSRFTNEETVSFCLRVMVGVIILYDHVHPVGAFAKTSKIDMKGCIKVLKDQPPNSVEGLLNALRYTTKHLNDETTSKQIKSMLQ
B2: sp¦Q9P035¦HACD3_HUMAN (protein, UniProt Q9P035 1-362, looked up)
Very-long-chain …: MENQVLTPHVYWAQRHRELYLRVELSDVQNPAISITENVLHFKAQGHGAKGDNVYEFHLEFLDLVKPEPVYKLTQRQVNITVQKKVSQWWERLTKQEKRPLFLAPDFDRWLDESDAEMELRAKEEERLNKLRLESEGSPETLTNLRKGYLFMYNLVQFLGFSWIFVNLTVRFCILGKESFYDTFHTVADMMYFCQMLAVVETINAAIGVTTSPVLPSLIQLLGRNFILFIIFGTMEEMQNKAVVFFVFYLWSAIEIFRYSFYMLTCIDMDWKVLTWLRYTLWIPLYPLGCLAEAVSVIQSIPIFNETGRFSFTLPYPVKIKVRFSFFLQIYLIMIFLGLYINFRHLYKQRRRRYGQKKKKIH
B3: sp¦Q7L5N7¦PCAT2_HUMAN (protein, UniProt Q7L5N7 1-544, looked up)
Lysophosphatidylcholine …: MSRCAQAAEVAATVPGAGVGNVGLRPPMVPRQASFFPPPVPNPFVQQTQIGSARRVQIVLLGIILLPIRVLLVALILLLAWPFAAISTVCCPEKLTHPITGWRRKITQTALKFLGRAMFFSMGFIVAVKGKIASPLEAPVFVAAPHSTFFDGIACVVAGLPSMVSRNENAQVPLIGRLLRAVQPVLVSRVDPDSRKNTINEIIKRTTSGGEWPQILVFPEGTCTNRSCLITFKPGAFIPGVPVQPVLLRYPNKLDTVTWTWQGYTFIQLCMLTFCQLFTKVEVEFMPVQVPNDEEKNDPVLFANKVRNLMAEALGIPVTDHTYEDCRLMISAGQLTLPMEAGLVEFTKISRKLKLDWDGVRKHLDEYASIASSSKGGRIGIEEFAKYLKLPVSDVLRQLFALFDRNHDGSIDFREYVIGLAVLCNPSNTEEIIQVAFKLFDVDEDGYITEEEFSTILQASLGVPDLDVSGLFKEIAQGDSISYEEFKSFALKHPEYAKIFTTYLDLQTCHVFSLPKEVQTTPSTASNKVSPEKHEESTSDKKDD
B4: sp¦Q9H7B2¦RPF2_HUMAN (protein, UniProt Q9H7B2 1-306, looked up)
Ribosome production factor 2 …: MDTLDRVVKPKTKRAKRFLEKREPKLNENIKNAMLIKGGNANATVTKVLKDVYALKKPYGVLYKKKNITRPFEDQTSLEFFSKKSDCSLFMFGSHNKKRPNNLVIGRMYDYHVLDMIELGIENFVSLKDIKNSKCPEGTKPMLIFAGDDFDVTEDYRRLKSLLIDFFRGPTVSNIRLAGLEYVLHFTALNGKIYFRSYKLLLKKSGCRTPRIELEEMGPSLDLVLRRTHLASDDLYKLSMKMPKALKPKKKKNISHDTFGTTYGRIHMQKQDLSKLQTRKMKGLKKRPAERITEDHEKKSKRIKKN
B5: sp¦P42126¦ECI1_HUMAN (protein, UniProt P42126 42-302, looked up)
Enoyl-CoA delta isomerase 1, …: FGSQRVLVEPDAGAGVAVMKFKNPPVNSLSLEFLTELVISLEKLENDKSFRGVILTSDRPGVFSAGLDLTEMCGRSPAHYAGYWKAVQELWLRLYQSNLVLVSAINGACPAGGCLVALTCDYRILADNPRYCIGLNETQLGIIAPFWLKDTLENTIGHRAAERALQLGLLFPPAEALQVGIVDQVVPEEQVQSTALSAIAQWMAIPDHARQLTKAMMRKATASRLVTQRDADVQNFVSFISKDSIQKSLQMYLERLKEEKG
B6: sp¦P11387¦TOP1_HUMAN (protein, UniProt P11387 2-765, looked up)
DNA topoisomerase 1: SGDHLHNDSQIEADFRLNDSHKHKDKHKDREHRHKEHKKEKDREKSKHSNSEHKDSEKKHKEKEKTKHKDGSSEKHKDKHKDRDKEKRKEEKVRASGDAKIKKEKENGFSSPPQIKDEPEDDGYFVPPKEDIKPLKRPRDEDDADYKPKKIKTEDTKKEKKRKLEEEEDGKLKKPKNKDKDKKVPEPDNKKKKPKKEEEQKWKWWEEERYPEGIKWKFLEHKGPVFAPPYEPLPENVKFYYDGKVMKLSPKAEEVATFFAKMLDHEYTTKEIFRKNFFKDWRKEMTNEEKNIITNLSKCDFTQMSQYFKAQTEARKQMSKEEKLKIKEENEKLLKEYGFCIMDNHKERIANFKIEPPGLFRGRGNHPKMGMLKRRIMPEDIIINCSKDAKVPSPPPGHKWKEVRHDNKVTWLVSWTENIQGSIKYIMLNPSSRIKGEKDWQKYETARRLKKCVDKIRNQYREDWKSKEMKVRQRAVALYFIDKLALRAGNEKEEGETADTVGCCSLRVEHINLHPELDGQEYVVEFDFLGKDSIRYYNKVPVEKRVFKNLQLFMENKQPEDDLFDRLNTGILNKHLQDLMEGLTAKVFRTYNASITLQQQLKELTAPDENIPAKILSYNRANRAVAILCNHQRAPPKTFEKSMMNLQTKIDAKKEQLADARRDLKSAKADAKVMKDAKTKKVVESKKKAVQRLEEQLMKLEVQATDREENKQIALGTSKLNYLDPRITVAWCKKWGVPIEKIYNKTQREKFAWAIDMADEDYEF
B7: sp¦P25815¦S100P_HUMAN (protein, UniProt P25815 1-95, looked up)
Protein S100-P: MTELETAMGMIIDVFSRYSGSEGSTQTLTKGELKVLMEKELPGFLQSGKDKDAVDKLLKDLDANGDAQVDFSEFIVFVAAITSACHKYFEKAGLK
B8: sp¦Q9NUQ2¦PLCE_HUMAN (protein, UniProt Q9NUQ2 1-364, looked up)
1-acyl-sn-glycerol-3-phosphate …: MLLSLVLHTYSMRYLLPSVVLLGTAPTYVLAWGVWRLLSAFLPARFYQALDDRLYCVYQSMVLFFFENYTGVQILLYGDLPKNKENIIYLANHQSTVDWIVADILAIRQNALGHVRYVLKEGLKWLPLYGCYFAQHGGIYVKRSAKFNEKEMRNKLQSYVDAGTPMYLVIFPEGTRYNPEQTKVLSASQAFAAQRGLAVLKHVLTPRIKATHVAFDCMKNYLDAIYDVTVVYEGKDDGGQRRESPTMTEFLCKECPKIHIHIDRIDKKDVPEEQEHMRRWLHERFEIKDKMLIEFYESPDPERRKRFPGKSVNSKLSIKKTLPSMLILSGLTAGMLMTDAGRKLYVNTWIYGTLLGCLWVTIKA
B9: sp¦P47985¦UCRI_HUMAN (protein, UniProt P47985 79-274, looked up)
Cytochrome b-c1 complex …: SHTDIKVPDFSEYRRLEVLDSTKSSRESSEARKGFSYLVTGVTTVGVAYAAKNAVTQFVSSMSASADVLALAKIEIKLSDIPEGKNMAFKWRGKPLFVRHRTQKEIEQEAAVELSQLRDPQHDLDRVKKPEWVILIGVCTHLGCVPIANAGDFGGYYCPCHGSHYDASGRIRLGPAPLNLEVPTYEFTSDDMVIVG

The source of these data is publication PMC8298264, “Function of cofactor Akirin2 in the regulation of gene expression in model human neutrophil-like HL60 cells” (Bioscience Reports, 2021).

In one test the test system is human HL60 cells. The experiment in a line: SWATH-MS proteomics, differential protein representation, akirin2 KO vs WT HL60 cells. The test is classed as cell-based. The settings on record: KO vs WT HL60 cells; sheet "Under-represented in KO". In outline: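 WT and akirin2 KO HL60 lysates (150 µg, n=3 biological replicates) were FASP trypsin-digested and desalted. A spectral library was built by IDA from 3 µg digests, then 5 µg per sample went to variable-window SWATH DIA over a 120-min 5–30% acetonitrile gradient. Identifications were accepted at 1% global FDR, with total-area-sum normalization.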
Turning to B1, the “Fold Change” value is listed as 0.4847 and the “Log (Fold Change)” value is -0.3146.
On to B2, for which the “Fold Change” value worked out at 0.4569 and the “Log (Fold Change)” value is -0.3402.
For B3, in that order: 0.4537 and -0.3432.
For B4, in that order: 0.4816 and -0.3173.
For B5, the “Fold Change” value is 0.4682 and the “Log (Fold Change)” value was -0.3295.
On to B6, for which the “Fold Change” value came out at 0.4613 and the “Log (Fold Change)” value is -0.336.
Consider B7, for which the “Fold Change” value is 0.4762 and the “Log (Fold Change)” value is recorded as -0.3222.

Still in this test, the particulars now being: akirin2 KO vs WT HL60 cells; sheet "Under-represented in KO".
Regarding B8, the “Fold Change” value stood at 0.2386 and the “Log (Fold Change)” value is -0.6223.
The matching figures for B9: 0.2341 and -0.6306.
